Experimental data taken from the supplement of paper PMC10126150.
± gives the standard deviation of the averaged measurements.

Test system: ATP
Experiment: switch fluorescence ratio, 500 uM ATP over buffer (Cy3 cluster intensity, sum of 5 cycles each) (fold (ratio)); higher = stronger signal-on switching upon ATP binding; sequences stand for … in TCGTCGGCAGCGTCAGATGTGTATAAGAGACAGTTTTTTTTTTTTTTTTTTTTTTTTT…TC
Conditions: aptamer strand: ATP DNA aptamer (quencher-CACCTGGGGGAGTATTGCGGAGGAAGG + anchor), 100 nM annealed; ATP concentration: 500 uM
Procedure, shortened: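 Between each of five buffer/ATP cycles, the flow-cell was stripped with NaOH and re-annealed. Each cycle imaged Cy3-labelled switching-strand clusters, annealed to 100 nM quencher-labelled ATP aptamer on a modified Illumina MiSeq flow-cell, first in selection buffer and then after 15 min with 500 uM ATP at 22 °C. The fluorescence ratio is summed target-cycle over summed buffer-cycle Cy3 intensity per cluster, averaged per switch-domain sequence, with clusters outside 100-1000 RFU excluded.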
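Further: ATP exposure 15 min at 22 °C before imaging.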

Row | Sequence | switch fluorescence ratio
1 | AGTATCTTAC | 1.03 ± 0.025
2 | AGTATGAGTT | 0.9737 ± 0.0017
3 | AGTATGGGTA | 1 ± 0.018
4 | AGTATGGTGT | 0.937 ± 0.044
5 | AGTATGGTTG | 1 ± 0.02
6 | AGTATGTGGA | 0.9729 ± 0.0071
7 | AGTATTAGAG | 0.983 ± 0.039
8 | AGTATTCAGG | 1 ± 0.027
9 | AGTATTGGAG | 1.004 ± 0.0023
10 | AGTATTTAGG | 0.9808 ± 0.0043
11 | AGTATTTGAG | 0.975 ± 0.023
12 | AGTATTTGTG | 0.97 ± 0.035
13 | AGTATTTTTT | 0.995 ± 0.01
14 | AGTCAATTAG | 1.04 ± 0.012
15 | AGTCATCGGG | 0.9728 ± 0.0011
16 | AGTCCAGTTT | 0.986 ± 0.013
17 | AGTCCGGGAG | 1.02 ± 0.026
18 | AGTCCTGGAG | 0.993 ± 0.044
19 | AGTCGAAATG | 0.989 ± 0.028
20 | AGTCGAGCGT | 0.9976 ± 0.0034
21 | AGTCGGAACG | 0.963 ± 0.015
22 | AGTCGGGCGT | 1 ± 0.046

Row | Sequence | switch fluorescence ratio
23 | AGTCGGTTCG | 0.986 ± 0.03
24 | AGTCGTACGG | 1.004 ± 0.0096
25 | AGTCGTTCTG | 0.99 ± 0.01
26 | AGTCTAACTC | 1.02 ± 0.019
27 | AGTCTAGGCG | 0.985 ± 0.011
28 | AGTCTCAGGC | 1 ± 0.032
29 | AGTCTTAAGG | 0.9459 ± 0.003
30 | AGTCTTGGGG | 0.977 ± 0.019
31 | AGTGAATCTG | 0.992 ± 0.085
32 | AGTGACGGTA | 1.04 ± 0.042
33 | AGTGAGATGA | 1 ± 0.04
34 | AGTGAGCAGC | 1.04 ± 0.039
35 | AGTGAGGCTC | 0.994 ± 0.011
36 | AGTGAGGGGT | 0.97 ± 0.03
37 | AGTGAGTCGG | 0.979 ± 0.018
38 | AGTGAGTGTA | 0.979 ± 0.015
39 | AGTGATATTT | 1.01 ± 0.042
40 | AGTGATCAGG | 1 ± 0.019
41 | AGTGATGCTT | 0.992 ± 0.036
42 | AGTGCAAGTG | 0.972 ± 0.011
43 | AGTGCCCGTA | 1.02 ± 0.063
44 | AGTGCCGGGA | 1.04 ± 0.034

Row | Sequence | switch fluorescence ratio
45 | AGTGCCTGCG | 1.02 ± 0.032
46 | AGTGCGAGAG | 1.01 ± 0.029
47 | AGTGCGGGTG | 1.13 ± 0.028
48 | AGTGCGTGCG | 0.979 ± 0.059
49 | AGTGCGTTTG | 1 ± 0.038
50 | AGTGGAAGCA | 0.972 ± 0.031
51 | AGTGGAAGGG | 0.957 ± 0.027
52 | AGTGGATGGG | 0.9858 ± 0.0031
53 | AGTGGCTTTT | 1.002 ± 0.0081
54 | AGTGGGAACC | 0.998 ± 0.025
55 | AGTGGGAGTG | 0.983 ± 0.034
56 | AGTGGGGCGC | 1.29 ± 0.4
57 | AGTGGGGGAA | 0.985 ± 0.027
58 | AGTGGGGTAC | 1.03 ± 0.032
59 | AGTGGGTCGG | 0.9824 ± 0.0097
60 | AGTGGTGAGT | 0.977 ± 0.025
61 | AGTGGTGGGT | 1.01 ± 0.035
62 | AGTGGTGTTG | 0.9577 ± 0.0092
63 | AGTGGTTAGT | 1.05 ± 0.027
64 | AGTGGTTGTA | 0.997 ± 0.024
65 | AGTGTAAGTA | 0.996 ± 0.03
66 | AGTGTAGCTT | 1.07 ± 0.19

Row | Sequence | switch fluorescence ratio
67 | AGTGTAGGGA | 1.01 ± 0.029
68 | AGTGTAGTCT | 0.961 ± 0.02
69 | AGTGTCCAGT | 1 ± 0.028
70 | AGTGTCGCCT | 0.985 ± 0.019
71 | AGTGTGATAG | 0.995 ± 0.034
72 | AGTGTGGAAT | 0.954 ± 0.011
73 | AGTGTGGGGA | 1.03 ± 0.028
74 | AGTGTGGGGT | 0.979 ± 0.054
75 | AGTGTGGTGG | 0.98944 ± 7.4e-05
76 | AGTGTGTGAA | 0.962 ± 0.01
77 | AGTGTGTGTG | 1.013 ± 0.0024
78 | AGTGTTACTG | 0.975 ± 0.044
79 | AGTGTTAGAC | 1.012 ± 0.0048
80 | AGTGTTAGTG | 0.997 ± 0.037
81 | AGTTAAAACG | 1.02 ± 0.011
82 | AGTTAAGAT | 1.01 ± 0.022
83 | AGTTAATTGA | 0.9704 ± 0.0093
84 | AGTTACCGGG | 0.998 ± 0.044
85 | AGTTACGGGC | 1.01 ± 0.017
